In publication PMC5778469:

Molecular target: T1, Cascade (type I-E effector complex) (Escherichia coli, UniProt Q46901;P76632;Q46899;Q46898;Q46897 1-502;1-160;1-363;1-224;1-199)
T1 sequence 1: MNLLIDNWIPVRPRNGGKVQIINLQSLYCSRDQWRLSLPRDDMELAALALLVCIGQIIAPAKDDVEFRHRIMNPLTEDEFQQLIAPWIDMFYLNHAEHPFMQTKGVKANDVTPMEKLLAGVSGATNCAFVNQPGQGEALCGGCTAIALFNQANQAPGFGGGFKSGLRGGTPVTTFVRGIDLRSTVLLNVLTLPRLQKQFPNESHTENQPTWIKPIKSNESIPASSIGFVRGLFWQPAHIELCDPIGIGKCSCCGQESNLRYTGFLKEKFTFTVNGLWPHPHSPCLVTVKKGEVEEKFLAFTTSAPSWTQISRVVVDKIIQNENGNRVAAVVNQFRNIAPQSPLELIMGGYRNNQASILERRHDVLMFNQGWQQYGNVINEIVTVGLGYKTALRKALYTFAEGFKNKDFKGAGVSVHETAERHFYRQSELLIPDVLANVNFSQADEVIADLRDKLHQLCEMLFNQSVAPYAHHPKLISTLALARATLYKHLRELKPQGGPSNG
T1 sequence 2: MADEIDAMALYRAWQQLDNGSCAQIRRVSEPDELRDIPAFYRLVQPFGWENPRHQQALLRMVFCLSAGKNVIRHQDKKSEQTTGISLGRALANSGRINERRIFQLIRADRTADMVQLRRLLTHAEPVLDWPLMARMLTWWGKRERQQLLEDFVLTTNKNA
T1 sequence 3: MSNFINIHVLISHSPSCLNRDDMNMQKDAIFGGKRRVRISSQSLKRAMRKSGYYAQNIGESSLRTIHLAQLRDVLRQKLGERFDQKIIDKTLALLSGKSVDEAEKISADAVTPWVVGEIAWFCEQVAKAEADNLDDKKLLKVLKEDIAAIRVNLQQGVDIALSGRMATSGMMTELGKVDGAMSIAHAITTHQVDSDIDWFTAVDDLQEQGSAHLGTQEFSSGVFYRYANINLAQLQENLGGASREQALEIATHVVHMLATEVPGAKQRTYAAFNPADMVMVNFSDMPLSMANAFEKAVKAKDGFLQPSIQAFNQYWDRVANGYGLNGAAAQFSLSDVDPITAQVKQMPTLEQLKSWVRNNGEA
T1 sequence 4: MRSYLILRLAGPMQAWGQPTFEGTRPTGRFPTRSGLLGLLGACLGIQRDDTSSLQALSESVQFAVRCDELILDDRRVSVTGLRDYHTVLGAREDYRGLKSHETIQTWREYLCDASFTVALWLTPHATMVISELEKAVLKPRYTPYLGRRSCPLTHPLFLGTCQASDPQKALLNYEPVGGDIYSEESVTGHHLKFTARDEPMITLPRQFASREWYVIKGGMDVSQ
T1 sequence 5: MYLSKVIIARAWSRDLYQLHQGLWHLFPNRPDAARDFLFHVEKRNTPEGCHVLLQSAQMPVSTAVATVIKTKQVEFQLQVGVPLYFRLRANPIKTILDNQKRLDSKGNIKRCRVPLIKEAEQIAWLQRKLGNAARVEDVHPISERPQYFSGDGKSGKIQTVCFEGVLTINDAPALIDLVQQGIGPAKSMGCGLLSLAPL
Experiment: EMSA

B1: sp8 target, 5-ghmC, with Cascade crRNA sp8 (dsDNA)
DNA 1: TTCATTTGATGCTCGATGAGTTTTTCTAAAAGCTGACGACCGGGTCTCCGCAAGTGGCACTTTTCCATGACCAAAATCCCTTAACGTGAGTTTTCGTT
DNA 2: AACGAAAACTCACGTTAAGGGATTTTGGTCATGGAAAAGTGCCACTTGCGGAGACCCGGTCGTCAGCTTTTAGAAAAACTCATCGAGCATCAAATGAA
modifications: glucosyl-5-hydroxymethylcytosine replacing C; exact positions not stated
binding result: no binding
